The values below come from US20260209339A1 (RADIANT BIOTHERAPEUTICS, published 2026).

Assay [1] has as its target interleukin-6 (IL-6) (UniProt P05231). The assay is described as follows: ELISA on IL-6. (In general: ELISA stands for enzyme-linked immunosorbent assay.)
The target is the same in assay [2]. The assay is described as follows: cell-based or functional assay.
Assay [3] has the same target. The assay is described as follows: BLI (Octet), IL-6 immobilized on the biosensor.
For assay [4] the target is unchanged. The assay is described as follows: cell-based or functional assay. This is another data set of the same source.
In assay [5] the target is T1, interleukin-6 (IL-6) (UniProt P05231 30-212). The assay is described as follows: BLI (Octet), IL-6 immobilized on the biosensor. On the technique in general: Biolayer interferometry detects binding as a change in optical thickness at a sensor tip.
From the text: This method measures binding reactions at the surface of a fiber optic biosensor functionalized with an immobilized target moiety (e.g., IL-6).
The target in assay [6] is bovine serum albumin (BSA) (bovine, UniProt P02769 25-607). The assay is described as follows: ELISA.
Sequence of bovine serum albumin (BSA) (P02769 25-607 limits assumed): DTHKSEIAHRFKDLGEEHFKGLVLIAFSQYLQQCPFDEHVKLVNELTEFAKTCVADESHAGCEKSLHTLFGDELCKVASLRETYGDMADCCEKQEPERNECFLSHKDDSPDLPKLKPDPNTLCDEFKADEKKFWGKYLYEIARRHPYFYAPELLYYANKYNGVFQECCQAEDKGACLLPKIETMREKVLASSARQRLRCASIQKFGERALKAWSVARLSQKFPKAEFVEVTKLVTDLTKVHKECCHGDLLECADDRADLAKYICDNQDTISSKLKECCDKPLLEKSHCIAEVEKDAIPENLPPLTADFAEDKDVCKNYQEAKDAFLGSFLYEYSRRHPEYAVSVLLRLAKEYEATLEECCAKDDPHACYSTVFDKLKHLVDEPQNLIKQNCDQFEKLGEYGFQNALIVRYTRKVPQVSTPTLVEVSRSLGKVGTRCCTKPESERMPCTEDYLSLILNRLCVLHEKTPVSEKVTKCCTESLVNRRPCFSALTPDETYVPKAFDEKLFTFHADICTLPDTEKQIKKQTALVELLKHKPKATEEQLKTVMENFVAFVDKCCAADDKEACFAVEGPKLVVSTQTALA
Assay [7] has as its target T2, interleukin-11 (IL-11) (UniProt P20809 22-199, limits assumed).
T2 sequence (looked up): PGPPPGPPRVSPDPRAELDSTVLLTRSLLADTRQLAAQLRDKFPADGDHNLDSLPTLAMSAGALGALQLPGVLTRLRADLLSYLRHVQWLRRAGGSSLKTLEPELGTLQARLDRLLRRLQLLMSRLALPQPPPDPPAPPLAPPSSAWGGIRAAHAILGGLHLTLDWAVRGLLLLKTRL
The assay is described as follows: ELISA.

Assay [8] addresses T1, interleukin-6 (IL-6). The assay is described as follows: cell-based or functional assay.
Assay [9] concerns the target T1, interleukin-6 (IL-6). The assay is described as follows: ELISA on IL-6.
Assay [10] addresses T1, interleukin-6 (IL-6). The assay is described as follows: cell-based or functional assay. The source holds these as a separate data set.
Assay [11] has as its target T1, interleukin-6 (IL-6). The assay is described as follows: cell-based or functional assay. The source holds these as a separate data set.
Assay [12] has as its target T3, interleukin-11 (IL-11) (UniProt P20809).
T3 sequence (looked up): T2 sequence (looked up)
The assay is described as follows: cell-based or functional assay.

The target of assay [13] is T3, interleukin-11 (IL-11). The assay is described as follows: ELISA on IL-11.
Assay [14] addresses T2, interleukin-11 (IL-11). The assay is described as follows: ELISA on IL-11.
Method: Binding of anti-IL-11 Multabodies to IL-11 was assessed using an enzyme-linked immunosorbent assay (ELISA).
For assay [15], the target named is T2, interleukin-11 (IL-11). The assay is described as follows: cell-based or functional assay.

Where two headings read alike, the source gives them in different places.

Sequence of interleukin-6 (IL-6) (UniProt P05231) (P05231 30-212 limits assumed): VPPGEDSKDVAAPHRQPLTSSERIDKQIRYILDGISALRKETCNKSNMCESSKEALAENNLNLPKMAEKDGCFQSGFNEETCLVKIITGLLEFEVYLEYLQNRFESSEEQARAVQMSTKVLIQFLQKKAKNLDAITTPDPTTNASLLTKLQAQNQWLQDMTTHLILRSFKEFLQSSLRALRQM

“Siltuximab Multabody (MB) (from UniProt P04945 1-108)” had an EC50 in assay [1] of 0.0353 nM. In [2], the Fold change (IgG vs. Multabody), IL-6 Bioassay IC50 worked out at 26 fold; the Fold change, INA-6 proliferation IC50 (IgG against MB) was 9 fold; the IC50 (nM), proliferation of IL-6-dependent INA-6 cells (CellTiter-Glo) is 0.67 nM; the IC50 (pM), IL-6 Bioassay (luciferase reporter cells) came to 44 pM. Moreover, in [3], the Kd is less than 1 pM.

B1: Clazakizumab Multabody (MB) (protein, part only; not given: Fab constants, linkers, ferritin carriers, not shown: another chain or arm of the molecule; a dimerising Fc or GST; large carriers; small tags and cut ends)
VH: EVQLVESGGGLVQPGGSLRLSCAASGFSLSNYYVTWVRQAPGKGLEWVGIIYGSDETAYATSAIGRFTISRDNSKNTLYLQMNSLRAEDTAVYYCARDDSSDWDAKFNLWGQGTLVTVSS
VL: AIQMTQSPSSLSASVGDRVTITCQASQSINNELSWYQQKPGKAPKLLIYRASTLASGVPSRFSGSGSGTDFTLTISSLQPDDFATYYCQQGYSLRNIDNAFGGGTKVEIK
In turn, B1 yielded an EC50 in assay [1] of 0.0543 nM. In assay [4], this molecule yielded a Fold change (IgG vs. Multabody), IL-6 Bioassay IC50 of 6 fold and an IC50 (pM), IL-6 Bioassay (luciferase reporter cells) of 100 pM. For the same molecule, the Kd in assay [3] was less than 1 pM.

B2: clazakizumab IgG (antibody, V domains shown)
VH: B1 VH
VL: AIQMTQSPSSLSASVGDRVTITCQASQSINNELSWYQQKPGKAPKLLIYRASTLASGVPSRFSGSGSGTDFTLTISSLQPDDFATYYCQQGYSLRNIDNAFGGGTKVEIKR
notes: Tested as parental IgG
In turn, B2 showed a Kd in assay [5] of less than 1 pM. Besides, the binding result in [6] and in [7] was “no binding” in each case. Moreover, the “IC50 (pM), IL-6 Bioassay (luciferase reporter cells)” value (from here on “IC50 (pM), IL-6 Bioassay”) in assay [8] was determined as 604 pM. The same molecule yielded an EC50 in [9] of 0.176 nM.

B3: siltuximab immunoglobulin (IgG) (antibody, V domains shown)
VH: EVQLVESGGKLLKPGGSLKLSCAASGFTFSSFAMSWFRQSPEKRLEWVAEISSGGSYTYYPDTVTGRFTISRDNAKNTLYLEMSSLRSEDTAMYYCARGLWGYYALDYWGQGTSVTVSS
VL: QIVLIQSPAIMSASPGEKVTMTCSASSSVSYMYWYQQKPGSSPRLLIYDTSNLASGVPVRFSGSGSGTSYSLTISRMEAEDAATYYCQQWSGYPYTFGGGTKLEIKR
notes: Tested as parental IgG; also called siltuximab IgG; CNTO-328
Regarding B3, the “IC50 (nM), proliferation of IL-6-dependent INA-6 cells (CellTiter-Glo)” value in assay [10] amounted to 5.88 nM. The molecule further displayed a Kd in [5] of less than 1 pM. Besides, the binding result in assay [6] and in assay [7] was “no binding” in each case. Besides, the “IC50 (pM), IL-6 Bioassay” value in assay [8] stood at 1150 pM. This molecule yielded an EC50 in [9] of 0.154 nM.

B4: Olokizumab Multabody (MB) (protein, part only; not given: Fab constants, linkers, ferritin carriers, not shown: another chain or arm of the molecule; a dimerising Fc or GST; large carriers; small tags and cut ends)
VH: EVQLVESGGGLVQPGGSLRLSCAASGFNFNDYFMNWVRQAPGKGLEWVAQMRNKNYQYGTYYAESLEGRFTISRDDSKNSLYLQMNSLKTEDTAVYYCARESYYGFTSYWGQGTLVTVSS
VL: DIQMTQSPSSLSASVGDRVTITCQASQDIGISLSWYQQKPGKAPKLLIYNANNLADGVPSRFSGSGSGTDFTLTISSLQPEDFATYYCLQHNSAPYTFGQGTKLEIK
B4 registered an EC50 in assay [1] of 0.0454 nM. Moreover, in [4], the Fold change (IgG vs. Multabody), IL-6 Bioassay IC50 came out at 60 fold; the Fold change (IgG/MB), IL-6-induced pSTAT3/STAT3 IC50, HCT-15 cells amounted to 7 fold; the Fold change (IgG/MB), IL-6-induced pSTAT3/STAT3 IC50, THP-1 cells was determined as 8 fold; the Fold change, INA-6 proliferation IC50 (IgG against MB) was 16 fold. In [4], this molecule registered an IC50 (nM), IL-6-induced pSTAT3/STAT3 (Meso Scale Discovery), HCT-15 cells of 0.03 nM; an IC50 (nM), IL-6-induced pSTAT3/STAT3 (Meso Scale Discovery), THP-1 cells of 0.06 nM; an IC50 (nM), proliferation of IL-6-dependent INA-6 cells (CellTiter-Glo) of 0.33 nM; an IC50 (pM), IL-6 Bioassay (luciferase reporter cells) of 9.4 pM. In assay [3], this molecule displayed a Kd of less than 1 pM.

B5: olokizumab IgG (antibody, V domains shown)
VH: B4 VH
VL: DIQMTQSPSSLSASVGDRVTITCQASQDIGISLSWYQQKPGKAPKLLIYNANNLADGVPSRFSGSGSGTDFTLTISSLQPEDFATYYCLQHNSAPYTFGQGTKLEIKR
notes: Tested as parental IgG; also called CDP6038
For the molecule B5, the “IC50 (nM), proliferation of IL-6-dependent INA-6 cells (CellTiter-Glo)” value in assay [10] was found to be 5.29 nM. The Kd in assay [5] was less than 1 pM. Further, the binding result in assay [6] is “no binding”. In assay [7], the binding result is “no binding”. Moreover, the “IC50 (pM), IL-6 Bioassay” value in assay [8] is 566 pM. For the same molecule, in [9], the EC50 amounted to 0.201 nM. Further, in assay [11], the “IC50 (nM), IL-6-induced pSTAT3/STAT3 (Meso Scale Discovery), HCT-15 cells” value is 0.2 nM and the “IC50 (nM), IL-6-induced pSTAT3/STAT3 (Meso Scale Discovery), THP-1 cells” value stood at 0.48 nM.

B6: anti-IL-11 Multabody (MB), source antibody TPP-29536 (protein, part only; not given: Fab constants, linkers, ferritin carriers, not shown: another chain or arm of the molecule; a dimerising Fc or GST; large carriers; small tags and cut ends)
VH: EVQLLESGGGLVQPGGSLRLSCAASGFTFSSYGMHWVRQAPGKGLEWVAVISYDGSYKYYADSVKGRFTISRDNSKNTLYLQMNSLRAEDTAVYYCAAGVPDYWGQGTLVTVSS
VL: QSVLTQPPSASGTPGQRVTISCSGSSSNIGSDYDVHWYQQLPGTAPKLLIYSNEERPSGVPDRFSGSKSGTSASLAISGLRSEDEADYYCSAWDSSLSGPVFGGGTKLTVL
In the case of B6, in [12], the Fold change, IL-11-dependent pSTAT3/STAT3 IC50 (IgG against MB), Panc-1 cells stood at 6 fold and the IC50 (nM), IL-11-dependent pSTAT3/STAT3 (Meso Scale Discovery), Panc-1 cells worked out at 0.13 nM. In [13], the half-maximal effective concentration (EC50) was 0.659 nM and the fold better binding than the parental IgG control is 3 to 4 fold.

B7: TPP-29536 IgG (antibody, V domains shown)
VH: B6 VH
VL: B6 VL
notes: Tested as parental IgG; also called anti-IL-11 IgG; parental IgG control
Molecule B7 yielded an EC50 in assay [14] of 2.71 nM. Besides, in assay [15], the “IC50 (nM), IL-11-dependent pSTAT3/STAT3 (Meso Scale Discovery), Panc-1 cells” value was 0.79 nM.

As a reminder, the EC50 is the concentration needed to bring the measured effect to its halfway point. For orientation: Kd means the constant that tells how readily two partners part at equilibrium.
